In US20230242662A1 (BIOATLA, published 2023):
Substitutions are numbered along the chain they refer to.

T1: huCD46-His (human, UniProt P15529 35-343)
T1 construct: extracellular domain; Immobilised by amine coupling on the SPR chip; It may be the same protein as the ELISA antigen; also called Human CD46-His; human CD46; not shown: His tag
T1 sequence (looked up): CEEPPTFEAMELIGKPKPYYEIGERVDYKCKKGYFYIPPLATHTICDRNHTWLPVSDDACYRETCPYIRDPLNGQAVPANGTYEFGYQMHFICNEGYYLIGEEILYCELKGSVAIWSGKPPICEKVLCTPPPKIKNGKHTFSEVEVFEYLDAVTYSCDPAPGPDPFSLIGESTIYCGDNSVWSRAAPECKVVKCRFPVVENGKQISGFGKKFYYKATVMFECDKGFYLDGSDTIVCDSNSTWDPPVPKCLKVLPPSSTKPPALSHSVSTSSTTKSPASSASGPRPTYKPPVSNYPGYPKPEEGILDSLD

T2: cynoCD46-His (cynomolgus, UniProt A0A2K5WCL8 35-328)
T2 construct: extracellular domain; Immobilised by amine coupling on the SPR chip; not shown: His tag
T2 sequence: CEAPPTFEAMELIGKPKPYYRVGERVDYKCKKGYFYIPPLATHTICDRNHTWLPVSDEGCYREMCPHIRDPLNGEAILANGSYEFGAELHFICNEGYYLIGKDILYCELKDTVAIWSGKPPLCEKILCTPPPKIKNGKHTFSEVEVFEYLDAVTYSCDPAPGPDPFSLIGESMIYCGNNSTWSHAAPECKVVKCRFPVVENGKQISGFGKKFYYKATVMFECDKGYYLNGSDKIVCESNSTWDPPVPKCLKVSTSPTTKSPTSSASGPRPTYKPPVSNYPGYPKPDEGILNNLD

T3: recombinant cyno CD46 antigen (cynomolgus, UniProt A0A2K5WCL8 35-328)
T3 construct: extracellular domain; Plate-coated antigen of the ELISA; also called cynomolgus CD46 extracellular domain
T3 sequence: T2 sequence

B1: BAP133-2-03-03-SL (antibody, V domains shown)
VH: EVQLVESGGGLVQPGGSLRLSCAASGGSVSSYDISWIRQSPSRGLEWLGVIWTDGGTNYNSAFMSRFTISRDDSKNTAYLQMNSLKTEDTAVYYCERVYDGYPWFAYWGQGTLVTVSS
VL: AIQLTQSPSSLSASVGDRVTITCRASQGISNYLNWYLQKPGQSPQLLIYYTSSLHSGVPDRFSGSGSGTDFTLKISRVEAEDVGVYYCQQYIKLPWTFGQGTKVEIK
notes: the killing assays used the ADC form; also called BAP133-02-03-03-SL; CPE hit BAP133-2-03-03-SL
B2: BA-133-04-03 (antibody, V domains shown)
VH: B1 VH
VL: B1 VL with H55F
notes: also called CPE hit BA133-04-03
B3: BA-133-04-04 (antibody, V domains shown)
VH: B1 VH
VL: B1 VL with S56E
notes: the killing assays used the ADC form; also called CPE hit BA133-04-04
B4: BA-133-04-02 (antibody, V domains shown)
VH: B1 VH
VL: B1 VL with S30A
notes: also called CPE hit BA133-04-02
B5: BA-133-04-01 (antibody, V domains shown)
VH: B1 VH
VL: B1 VL with G28W
notes: also called CPE hit BA133-04-01
B6: Benchmark (BM) BA-133-00-01 (antibody, V domains shown)
VH: QVQLQESGPGLVKPSETLSLTCTVSGGSVSSYDISWIRQPPGKGLEWIGVIWTDGGTNYNSAFMSRVTISVDTSKNQFSLKLSSVTAADTAVYYCARVYDGYPWFAYWGQGTLVTVSS
VL: DIQMTQSPSSLSASVGDRVTITCRASQGISNYLNWYQQKPGKAPKLLIYYTSSLHSGVPSRFSGSGSGTDFTLTISSLQPEDFATYYCQQYIKLPWTFGGGTKLEIKR
notes: the killing assays used the ADC form; Conjugation site and payload are not described; also called BM (bench mark)

Target: T4, cyno CD46 expressed on 293 cells (cynomolgus)
T4 construct: whole, on cells; The construct on the cells is not described; also called HEK 293 cells expressing cyno CD46
Assay: FACS, 293 cells expressing cyno CD46, pH 6.0
Method: (§1) A similar FACS analysis was also carried out using 293 cells expressing cyno CD46. […] The EC50 values for binding to the 293 cells expressing cyno CD46 by the conditionally active anti-CD46 antibodies are summarized in Table 6.

| EC50 [µg/mL] | Binder |
| --- | --- |
| 0.104 | B1 |
| 0.0411 | B2 |
| 0.0947 | B3 |
| 0.132 | B4 |
| 0.114 | B5 |
| 0.0336 | B6 |

Target: T4, cyno CD46 expressed on 293 cells
Assay: FACS, 293 cells expressing cyno CD46, pH 7.4
Method: as §1

| EC50 [µg/mL] | Binder |
| --- | --- |
| 1.15 | B1 |
| 0.33 | B2 |
| 0.944 | B3 |
| 1.37 | B4 |
| 0.958 | B5 |
| 0.0493 | B6 |

Target: T1, huCD46-His
Assay: SPR, huCD46-His immobilised, antibody as analyte, pH 6.0
Method: (§2) Binding kinetics of anti-CD46 antibodies were measured by surface plasmon resonance on a SPR2/4 instrument (Sierra Sensors, Hamburg, Germany) and flat amine sensor chips. The SPR sensor contained four flow cells (FC1-FC4), each of which can be addressed individually or in groups. huCD46-His was immobilized in FC2, and cynoCD46-His was immobilized in FC4. No protein was immobilized in FC1 and FC3 which were used as control surfaces for FC2 and FC4, respectively.
(§3) All injections were done at a flow rate of 25 μL/min and 25° C. The sensor surface was activated with 1-ethyl-3-(3-dimethylaminopropyl)-carbodiimide (EDC) and N-hydroxysuccinimide (NHS) (200 mM/50 mM) for 480 seconds. Human CD46-His (2 μg/mL in 10 mM NaAc, pH5.0) was injected for 480s and the surface was inactivated by injecting 1M ethanolamine-HCl for 480s. cynoCD46-His was immobilized using the same conditions as described for huCD46-His, except that it was diluted into 10 mM NaAc buffer pH4.5. The control surface was activated and deactivated using the same conditions, but without injecting protein. PBST buffer (PBS pH7.4 with 0.05% TWEEN20™) was used as running buffer for the surface preparation. The running solution was switched to PBST with 30 mM sodium bicarbonate with the pH adjusted as indicated in the figures before the analyte injections. The instrument was equilibrated with the running solution for one hour before the first analyte injection.
(§4) The off-rate was measured for 360 s. The chip surface was regenerated after each cycle of interaction by injecting 6 μL of 10 mM glycine (pH 2.0). Flow cells 1 and 3 without immobilized protein were used as control surfaces for reference subtraction.

| Kd [nM] | koff [s⁻¹] | kon [M⁻¹ s⁻¹] | Binder |
| --- | --- | --- | --- |
| 2.36 | 0.000915 | 388000 | B1 |
| 1.52 | 0.00179 | 1.18e+06 | B2 |
| 2.51 | 0.00207 | 824000 | B3 |
| 2.33 | 0.00143 | 611000 | B4 |
| 0.991 | 0.00113 | 1.14e+06 | B5 |
| 2.32 | 0.00158 | 682000 | B6 |

Target: T1, huCD46-His
Assay: SPR, huCD46-His immobilised, antibody as analyte, pH 6.5
Method: as §2, §3, §4

| Kd [nM] | koff [s⁻¹] | kon [M⁻¹ s⁻¹] | Binder |
| --- | --- | --- | --- |
| 1.29 | 0.000736 | 571000 | B1 |
| 2.07 | 0.00195 | 941000 | B2 |
| 1.91 | 0.00176 | 922000 | B3 |
| 2.31 | 0.00127 | 547000 | B4 |
| 1.77 | 0.00123 | 696000 | B5 |
| 2.15 | 0.00133 | 621000 | B6 |

Target: T1, huCD46-His
Assay: SPR, huCD46-His immobilised, antibody as analyte, pH 7.4
Method: as §2, §3, §4

| Kd [nM] | koff [s⁻¹] | kon [M⁻¹ s⁻¹] | Binder |
| --- | --- | --- | --- |
| 0.89 | 0.000778 | 874000 | B1 |
| 4.8 | 0.00249 | 519000 | B2 |
| 4.93 | 0.00241 | 490000 | B3 |
| 4.17 | 0.00174 | 417000 | B4 |
| 3.99 | 0.00154 | 385000 | B5 |
| 2.13 | 0.00119 | 555000 | B6 |

Target: T2, cynoCD46-His
Assay: SPR, cynoCD46-His immobilised, antibody as analyte, pH 6.0
Method: as §2, §3, §4

| Kd [nM] | koff [s⁻¹] | kon [M⁻¹ s⁻¹] | Binder |
| --- | --- | --- | --- |
| 2.55 | 0.00255 | 1e+06 | B1 |
| 0.514 | 0.00143 | 2.79e+06 | B2 |
| 1.02 | 0.00146 | 1.42e+06 | B3 |
| 0.519 | 0.000835 | 1.61e+06 | B4 |
| 0.465 | 0.000757 | 1.63e+06 | B5 |
| 0.795 | 0.00115 | 1.45e+06 | B6 |

Target: T2, cynoCD46-His
Assay: SPR, cynoCD46-His immobilised, antibody as analyte, pH 6.5
Method: as §2, §3, §4

| Kd [nM] | koff [s⁻¹] | kon [M⁻¹ s⁻¹] | Binder |
| --- | --- | --- | --- |
| 2.33 | 0.00198 | 849000 | B1 |
| 0.624 | 0.00142 | 2.28e+06 | B2 |
| 1.09 | 0.00145 | 1.33e+06 | B3 |
| 0.683 | 0.000943 | 1.38e+06 | B4 |
| 0.558 | 0.000662 | 1.19e+06 | B5 |
| 0.778 | 0.00117 | 1.51e+06 | B6 |

Target: T2, cynoCD46-His
Assay: SPR, cynoCD46-His immobilised, antibody as analyte, pH 7.4
Method: as §2, §3, §4

| Kd [nM] | koff [s⁻¹] | kon [M⁻¹ s⁻¹] | Binder |
| --- | --- | --- | --- |
| 5.47 | 0.00242 | 442000 | B1 |
| 1.26 | 0.00153 | 1.21e+06 | B2 |
| 2.28 | 0.00154 | 673000 | B3 |
| 1.06 | 0.000904 | 852000 | B4 |
| 1.29 | 0.000893 | 690000 | B5 |
| 0.905 | 0.0011 | 1.21e+06 | B6 |

Target: T3, recombinant cyno CD46 antigen
Assay: ELISA, coated cyno CD46; EC50 at pH 7.4 over EC50 at pH 6.0
Method: The binding activities of conditionally active anti-CD46 antibodies to cyno CD46 were measured by ELISA and are shown in FIGS. 3-4. The EC50 values for binding to the cyno CD46 at pH 6.0 and pH 7.4 for the conditionally active anti-CD46 antibodies are summarized in Table 2.
[…] Cover with sealing film and place the plate onto a plate shaker set to 50 rpm for 60 minutes at room temperature. [0351] 6) Decant plates and tap out residual liquid on a stack of paper towels. [0352] 7) Serially dilute test articles in 3-fold dilutions starting at 3000 ng/mL in pH 6.0 or pH 7.4 ELISA incubation buffer. [0353] 8) Add 100 μL/well of diluted test articles to the plates [0354] 9) Cover with sealing film and place the plates onto a plate shaker set to 50 rpm for 60 minutes at room temperature. […] 10) Decant plates and tap out residual liquid on a stack of paper towels. [0356] 11) Wash wells three times by dispensing 200 μL of pH 6.0 or pH 7.4 ELISA wash buffer to the wells and completely aspirate the contents. [0357] 12) Dilute the HRP secondary antibody at 1:2500 in pH 6.0 or pH 7.4 ELISA incubation buffer. [0358] 13) Add 100 μL HRP secondary antibody diluted in pH 6.0 or pH 7.4 ELISA incubation buffer to each well [0359] 14) Cover with sealing film and place the plates onto a plate shaker set to 50 rpm for 60 minutes at room temperature. [0360] 15) Decant plates and tap out residual liquid on a stack of paper towels. [0361] 16) Wash wells three times by dispensing 200 μL of pH 6.0 or pH 7.4 ELISA wash buffer to the wells and completely aspirate the contents. [0362] 17) Dispense 50 μL per well of the TMB substrate solution into all wells of the plates. Incubate at room temperature for about 2 minutes 15 seconds or 2 minutes. […] 18) Add 50 μL per well of 1N HCl into all wells of the plates. Read plates at 450 nm using PerkinElmer, EnSpire 2300 Multilabel Reader.

| ratio (ph 7.4/pH 6.0) | Binder |
| --- | --- |
| 11 | B1 |
| 7.14 | B2 |
| 13 | B3 |
| 9 | B4 |
| 9.2 | B5 |
| 1.33 | B6 |

Target: T4, cyno CD46 expressed on 293 cells
Assay: FACS, 293 cells expressing cyno CD46; EC50 at pH 7.4 over EC50 at pH 6.0
Method: as §1

| Ratio (pH 7.4/6.0) | Binder |
| --- | --- |
| 11 | B1 |
| 8 | B2 |
| 10 | B3 |
| 10.4 | B4 |
| 8.4 | B5 |
| 1.5 | B6 |
